Data taken from patent US12735488 (dated 2026).
Where a chain is given by its changes, count along the chain named.

How the values were obtained:
[1] = molecular target: hVISTA-ECD (human); test: SPR pH 6.0, 37C
[2] = molecular target: hVISTA-ECD (human); test: SPR pH 6.9
[3] = molecular target: hVISTA-ECD (human); test: SPR pH 7.4, 37C
[4] = molecular target: hVISTA-ECD (human); test: SPR pH 6.0, 37C; remark: listed apart in the source
[5] = molecular target: hVISTA-ECD (human); test: SPR pH 6.45, 37C
[6] = molecular target: hVISTA-ECD (human); test: SPR pH 7.4, low or no binding
[7] = molecular target: hVISTA-ECD (human); test: SPR pH 6.0, 37C; remark: listed apart in the source
[8] = molecular target: hVISTA-ECD (human); test: SPR pH 6.9, 37C
[9] = molecular target: hVISTA-ECD (human); test: SPR pH 6.45
[10] = molecular target: hVISTA-ECD (human); test: SPR pH 6.0
[11] = molecular target: hVISTA-ECD (human); test: SPR pH 7.4, 37C; remark: listed apart in the source
[12] = molecular target: hVISTA-ECD (human); test: SPR pH 6.9, low or no binding
[13] = molecular target: hVISTA-ECD (human); test: SPR pH 7.4, 37C; remark: listed apart in the source
[14] = molecular target: hVISTA-ECD (human); test: SPR pH 6.45, low or no binding
[15] = molecular target: hVISTA-ECD (human); test: SPR pH 7.4, 37C; remark: listed apart in the source
[16] = molecular target: hVISTA-ECD (human); test: SPR pH 6.0, 37C; remark: listed apart in the source

hVISTA-ECD (human), sequence (chain, as listed by the source): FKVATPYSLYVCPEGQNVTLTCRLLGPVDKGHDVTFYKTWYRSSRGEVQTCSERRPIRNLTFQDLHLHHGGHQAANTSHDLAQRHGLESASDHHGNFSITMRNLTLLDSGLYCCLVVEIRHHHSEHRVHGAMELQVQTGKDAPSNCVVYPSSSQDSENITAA

B1: P1-068767 (antibody, V domains shown)
VH: EVQLVESGGGLVQPGKSLRLSCAASGFTLEDYAMHWVRQAPGKGLEWVSGIDWNSENIGYADSVKGRFTISRDNAKNSLYLQMNSLRTEDTALYYCAKVPGYSGGWIDAEDDWGQGTMVTVSS
VL: not shown
Kd [1]: 3.4 nM
Kd [2]: 385 nM
Kd [3]: 19000 nM
Kd [4]: 7.8 nM
Kd [5]: 38 nM
binding result [6]: no binding
Kd [7]: 7.6 nM
Kd [8]: 400 nM
Kd [9]: 31.8 nM
Kd [10]: 6.78 nM
Kd [11]: 19000 nM

B2: P1-068757 (antibody, V domains shown)
VH: B1 VH with Y32E, D52N, N57E
VL: not shown
binding result [12]: no binding

B3: P1-061029 hIgG1f afucosylated (antibody, V domains shown)
VH: B1 VH with E30D, D52N, E56A, E110F, D112V
VL: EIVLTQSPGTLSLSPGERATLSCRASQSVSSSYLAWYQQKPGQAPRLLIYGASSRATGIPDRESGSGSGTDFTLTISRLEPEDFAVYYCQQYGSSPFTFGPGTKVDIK
Kd [3]: 41 nM
Kd [4]: 6.9 nM

B4: P1-070922 (P1-068767_E30D_E55A) (antibody, V domains shown)
VH: B1 VH with E30D, E56A
VL: not shown
binding result [6]: no binding

B5: P1-068771 (antibody, V domains shown)
VH: B1 VH with Y32E, D52N, E56H, N57E
VL: not shown
binding result [13]: no binding

B6: P1-070870 (P1-068761_E56N) (antibody, V domains shown)
VH: B1 VH with Y32E, D52N, G104H, D112V
VL: not shown
binding result [6]: no binding

B7: P1-068767 hIgG1f afucosylated (antibody, V domains shown)
VH: B1 VH
VL: not shown
Kd [3]: 24000 nM
Kd [4]: 7.9 nM

B8: P1-068759 (antibody, V domains shown)
VH: B1 VH with Y32E
VL: not shown
binding result [14]: no binding

B9: P1-068769 (antibody, V domains shown)
VH: B1 VH with Y32E, D52N, E56D, N57H
VL: not shown
binding result [13]: no binding

B10: P1-070890 (P1-068761_E30D_E55A) (antibody, V domains shown)
VH: B1 VH with E30D, Y32E, D52N, E56A, N57E, G104H, D112V
VL: not shown
binding result [6]: no binding

B11: P1-070878 (P1-068761_E55A_E56N) (antibody, V domains shown)
VH: B1 VH with Y32E, D52N, E56A, G104H, D112V
VL: not shown
binding result [6]: no binding

B12: P1-070864 (P1-068761_E30D) (antibody, V domains shown)
VH: B1 VH with E30D, Y32E, D52N, N57E, G104H, D112V
VL: not shown
binding result [6]: no binding

B13: P1-068767 hIgG1f (antibody, V domains shown)
VH: B1 VH
VL: not shown
Kd [3]: 22000 nM
Kd [4]: 8 nM

B14: P1-068761 (antibody, V domains shown)
VH: B1 VH with Y32E, D52N, N57E, G104H, D112V
VL: not shown
binding result [6]: no binding

B15: P1-068765 (antibody, V domains shown)
VH: B1 VH with L29D, D52N, N57E
VL: not shown
binding result [6]: no binding

B16: P1-068775 (antibody, V domains shown)
VH: B1 VH with Y32E, N57E, G104H
VL: not shown
binding result [13]: no binding

B17: P1-068773 (antibody, V domains shown)
VH: B1 VH with E56D
VL: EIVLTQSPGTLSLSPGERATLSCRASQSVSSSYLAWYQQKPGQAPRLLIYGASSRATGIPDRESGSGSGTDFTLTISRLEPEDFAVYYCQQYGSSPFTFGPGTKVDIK
Kd [7]: 9.4 nM

B18: P1-068761 hIgG1f afucosylated (antibody, V domains shown)
VH: B1 VH with Y32E, D52N, N57E, G104H, D112V
VL: not shown
Kd [3]: 8200 nM
Kd [4]: 4.1 nM

B19: P1-070904 (P1-068767_E30D) (antibody, V domains shown)
VH: B1 VH with E30D
VL: not shown
binding result [6]: no binding

B20: P1-070872 (P1-068761_H100G) (antibody, V domains shown)
VH: B1 VH with Y32E, D52N, N57E, D112V
VL: not shown
binding result [6]: no binding

B21: P1-070900 (P1-068761_E56N_H100G) (antibody, V domains shown)
VH: B1 VH with Y32E, D52N, D112V
VL: not shown
binding result [6]: no binding

B22: P1-068748 (antibody, V domains shown)
VH: QVQLVESGGGVVQPGRSLRLSCAASGFTFSHHAMHWVRQAPGKGLEWVAIIWYDGSNDDYADSVKGRFTISRDNSKNTLYLQMNSLRAEDTAVYYCARDSGFYDSYYFDYWGQGTLVTVSS
VL: EIVLTQSPATLSLSPGERATLSCRASQSVSSSYLAWYQQKPGQAPRLLIYDASNRATGIPARFSGSGSGTDFTLTISSLEPEDFATYYCQQYNSYPYTFGQGTKLEIK
binding result [15]: no binding

B23: P1-068744 (antibody, V domains shown)
VH: B22 VH with H31E, H32Y, I50H, D58K, D59Y, Y60E, D104E, Y110E
VL: B22 VL
binding result [6]: no binding

B24: P1-068742 (antibody, V domains shown)
VH: B22 VH with H31D, H32Y, N57D, D58K, D104E, S105D
VL: B22 VL
koff [16]: > 0.01 s⁻¹

B25: P1-068746 (antibody, V domains shown)
VH: B22 VH with H31S, H32Y, D58H, D59H
VL: B22 VL
koff [16]: > 0.01 s⁻¹
